Test [1] has as its target T1, Histidine-tagged human CD40 protein (hCD40-His) (human, UniProt P25942 21-193).
T1 construct: not shown: histidine tag
Description: SPR, Biacore T200; antibody on Protein A chip, hCD40-His injected; 1:1 fit. The procedure: The binding affinity of the anti-hCD40 antibodies were measured using surface plasmon resonance (SPR) using Biacore (Biacore, INC, Piscataway N.J.) T200 biosensor equipped with pre-immobilized Protein A sensor chips.
Anti-hCD40 antibodies were collected by transfecting CHO-S cells and then purified. The antibodies (1 μg/mL) were injected into Biacore T200 biosensor at 10 μL/min for about 24-33 seconds to achieve to a desired protein density (about 44-57 response units (RU)). […] Dissociation was monitored for 300 seconds. The chip was regenerated after the last injection of each titration with Glycine (pH 2.0, 30 μL/min for 12 seconds).
(Surface plasmon resonance follows binding to a sensor surface in real time, without labels.)

Test [2] addresses T2, Histidine-tagged mfCD40 protein (mfCD40-His), Macaca fascicularis (Macaca fascicularis, UniProt G7PG38 21-193).
T2 construct: not shown: histidine tag
Description: SPR, Biacore T200; antibody on Protein A chip, mfCD40-His injected; 1:1 fit. On the procedure:
The binding affinity of the anti-hCD40 antibodies with mfCD40 (Macaca fascicularis) were measured using surface plasmon resonance (SPR) using Biacore (Biacore, INC, Piscataway N.J.) T200 biosensor equipped with pre-immobilized Protein A sensor chips.
Anti-hCD40 antibodies were purified. The antibodies (0.5 μg/mL) were injected into Biacore T200 biosensor at 10 μL/min for about 18-26 seconds to achieve to a desired protein density (about 44-58 response units (RU)). […] Dissociation was monitored for 300-600 seconds. The chip was regenerated after the last injection of each titration with Glycine (pH 2.0, 30 μL/min for 12 seconds).

In patent publication US20250034271A1 (EUCURE BEIJING BIOPHARMA, published 2025) one finds Kd, koff and kon data, which are given here for 13 molecules.

T1 sequence (P25942 21-193 limits assumed): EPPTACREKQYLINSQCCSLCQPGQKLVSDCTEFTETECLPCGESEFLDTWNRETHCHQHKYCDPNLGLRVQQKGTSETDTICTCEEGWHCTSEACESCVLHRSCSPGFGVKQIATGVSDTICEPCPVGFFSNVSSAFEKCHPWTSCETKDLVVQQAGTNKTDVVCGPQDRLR

B1: 4H6-mHvKv-IgG1 (antibody, V domains shown)
VH: EVKLQESGPSLVKPSQTLSLTCSVTGDSVSSGYWNWIRKFPGNKLEYMGFISYSGSTYYTPSLKSRISITRDTSKNQFYLQLNSVTTEDTATYFCARFRRYDDGVDYWGQGTTLTVSS
VL: DIQMTQSPSSLSASLGERVSLTCRASHEISGYLSWIQQKPDGTIKRLINAASTLASGVPKRFSGSRSGSEYSLTINSLESEDFADYYCLQYSSYPWTFGGGTKLEIK
notes: Chimeric
By Kd is commonly meant the constant that tells how readily two partners part at equilibrium. The low end stands for a tighter complex, the high end for a looser complex. As a reminder, the koff is the first-order rate constant of dissociation. Higher therefore signals fast dissociation. In general, kon refers to the rate constant with which the complex forms. In test [1], B1 displayed a Kd of 36.5 nM, a koff of 0.0205 s⁻¹ and an association rate constant (kon) of 561000 M⁻¹ s⁻¹.

B2: 4H6-H3K2-IgG4 (antibody, V domains shown)
VH: EVQLQESGPGLVKPSQTLSLTCTVSGDSVSSGYWNWIRKHPGKKLEYMGFISYSGSTYYTPSLKSRITISRDTSKNQFSLKLSSVTAADTAVYFCARFRRYDDGVDYWGQGTLVTVSS
VL: DIQMTQSPSAMSASVGDRVTITCRASHEISGYLSWIQQKPGGTIKRLINAASTLASGVPSRFSGSRSGTEFTLTISSLQPEDFADYYCLQYSSYPWTFGGGTKLEIK
notes: Humanized
For the molecule B2, in test [1], the equilibrium dissociation constant (Kd) came out at 53.6 nM, the koff worked out at 0.0215 s⁻¹ and the kon was 401000 M⁻¹ s⁻¹. Further, in test [2], the Kd amounted to 33.6 nM, the koff amounted to 0.0192 s⁻¹ and the association rate constant (kon) was 570000 M⁻¹ s⁻¹.

B3: 4H6-H4K2-IgG4 (antibody, V domains shown)
VH: EVQLQESGPGLVKPSQTLSLTCTVSGDSVSSGYWNWIRKFPGKKLEYMGFISYSGSTYYTPSLKSRITISRDTSKNQFSLKLSSVTAADTAVYFCARFRRYDDGVDYWGQGTLVTVSS
VL: DIQMTQSPSAMSASVGDRVTITCRASHEISGYLSWIQQKPGGTIKRLINAASTLASGVPSRFSGSRSGTEFTLTISSLQPEDFADYYCLQYSSYPWTFGGGTKLEIK
notes: Humanized
In test [1], B3 gave a Kd of 48.7 nM, a koff of 0.0191 s⁻¹ and a kon of 392000 M⁻¹ s⁻¹. In test [2], this molecule had an equilibrium dissociation constant (Kd) of 29.7 nM, a koff of 0.0169 s⁻¹ and a kon of 568000 M⁻¹ s⁻¹.

B4: 6A7-H1K2-IgG4 (antibody, V domains shown)
VH: QVQLVQSGAEVKKPGASVKVSCKASGYTFISYYIYWVRQAPGQGLEWMGGINPRNGGTNFNEKFKSRVTLTVDTSISTAYMELSRLRSEDTAVYYCARHGNGVYWGQGTTVTVSS
VL: DVVMTQSPLSLPVTLGQPASISCRSSQSLLHSNGNTYLHWYQQRPGQSPNHLIYQVSNRFSGVPDRFSGSGSGTDFTLKISRVEAEDVGVYFCSQTTHVPWTFGGGTKVEIK
notes: Humanized
In test [1], B4 came in with a Kd of 187 nM, a koff of 0.00386 s⁻¹ and a kon of 20600 M⁻¹ s⁻¹.

B5: 6A7-H3K1-IgG4 (antibody, V domains shown)
VH: QVQLVQSGAEVKKPGASVKVSCKASGYTFISYYIYWVRQAPGQGLEWIGGINPRNGGTNFNEKFKSRATLTVDTSISTAYMELSRLRSEDTAVYYCTRHGNGVYWGQGTTVTVSS
VL: DVVMTQSPLSLPVTLGQPASISCRSSQSLLHSNGNTYLHWFQQRPGQSPRHLIYQVSNRFSGVPDRFSGSGSGTDFTLKISRVEAEDVGVYYCSQTTHVPWTFGGGTKVEIK
notes: Humanized
Take B5: in test [1], binding was characterised by a dissociation constant (Kd) of 20.8 nM, the koff was found to be 0.000574 s⁻¹ and the kon came to 27600 M⁻¹ s⁻¹.

B6: 6A7-H2K3-IgG4 (antibody, V domains shown)
VH: QVQLVQSGAEVKKPGASVKVSCKASGYTFISYYIYWVRQAPGQGLEWIGGINPRNGGTNFNEKFKSRATLTVDTSISTAYMELSRLRSEDTAVYYCARHGNGVYWGQGTTVTVSS
VL: DVVMTQSPLSLPVTLGDPASISCRSSQSLLHSNGNTYLHWYQQRPGQSPNHLIYQVSNRFSGVPDRFSGSGSGTDFTLKISRVEAEDVGVYFCSQTTHVPWTFGGGTKLEIK
notes: Humanized
Regarding B6, in test [1], the Kd is 111 nM, the koff stood at 0.00505 s⁻¹ and the kon is 45300 M⁻¹ s⁻¹.

B7: 6A7-H4K2-IgG4 (antibody, V domains shown)
VH: QVQLVQSGAEVKKPGASVKLSCKASGYTFISYYIYWVKQAPGQGLEWIGGINPRNGGTNFNEKFKSRATLTVDTSISTAYMELSRLRSEDTAVYYCTRHGNGVYWGQGTTLTVSS
VL: DVVMTQSPLSLPVTLGQPASISCRSSQSLLHSNGNTYLHWYQQRPGQSPNHLIYQVSNRFSGVPDRFSGSGSGTDFTLKISRVEAEDVGVYFCSQTTHVPWTFGGGTKVEIK
notes: Humanized
On to B7, for which, in test [1], the dissociation constant (Kd) came out at 3.06 nM, the koff is 0.000322 s⁻¹ and the kon was found to be 105000 M⁻¹ s⁻¹. In test [2], this molecule returned a Kd of 3.96 nM, a koff of 0.000787 s⁻¹ and a kon of 199000 M⁻¹ s⁻¹.

B8: 6A7-H4K3-IgG4 (antibody, V domains shown)
VH: QVQLVQSGAEVKKPGASVKLSCKASGYTFISYYIYWVKQAPGQGLEWIGGINPRNGGTNFNEKFKSRATLTVDTSISTAYMELSRLRSEDTAVYYCTRHGNGVYWGQGTTLTVSS
VL: DVVMTQSPLSLPVTLGDPASISCRSSQSLLHSNGNTYLHWYQQRPGQSPNHLIYQVSNRFSGVPDRFSGSGSGTDFTLKISRVEAEDVGVYFCSQTTHVPWTFGGGTKLEIK
notes: Humanized
As for B8, in test [1], binding was put at a Kd of 3.49 nM, the koff stood at 0.000373 s⁻¹ and the on-rate constant (kon) worked out at 107000 M⁻¹ s⁻¹.

B9: 6A7-H4K1-IgG4 (antibody, V domains shown)
VH: QVQLVQSGAEVKKPGASVKLSCKASGYTFISYYIYWVKQAPGQGLEWIGGINPRNGGTNFNEKFKSRATLTVDTSISTAYMELSRLRSEDTAVYYCTRHGNGVYWGQGTTLTVSS
VL: DVVMTQSPLSLPVTLGQPASISCRSSQSLLHSNGNTYLHWFQQRPGQSPRHLIYQVSNRFSGVPDRFSGSGSGTDFTLKISRVEAEDVGVYYCSQTTHVPWTFGGGTKVEIK
notes: Humanized
In test [1], B9 registered a Kd of 23.9 nM, a koff of 0.000572 s⁻¹ and a kon of 23900 M⁻¹ s⁻¹.

B10: 6A7-H2K1-IgG4 (antibody, V domains shown)
VH: QVQLVQSGAEVKKPGASVKVSCKASGYTFISYYIYWVRQAPGQGLEWIGGINPRNGGTNFNEKFKSRATLTVDTSISTAYMELSRLRSEDTAVYYCARHGNGVYWGQGTTVTVSS
VL: DVVMTQSPLSLPVTLGQPASISCRSSQSLLHSNGNTYLHWFQQRPGQSPRHLIYQVSNRFSGVPDRFSGSGSGTDFTLKISRVEAEDVGVYYCSQTTHVPWTFGGGTKVEIK
notes: Humanized
On to B10, for which, in test [1], the Kd came out at 298 nM, the koff stood at 0.00708 s⁻¹ and the kon is 23700 M⁻¹ s⁻¹.

B11: 6A7-H1K3-IgG4 (antibody, V domains shown)
VH: QVQLVQSGAEVKKPGASVKVSCKASGYTFISYYIYWVRQAPGQGLEWMGGINPRNGGTNFNEKFKSRVTLTVDTSISTAYMELSRLRSEDTAVYYCARHGNGVYWGQGTTVTVSS
VL: DVVMTQSPLSLPVTLGDPASISCRSSQSLLHSNGNTYLHWYQQRPGQSPNHLIYQVSNRFSGVPDRFSGSGSGTDFTLKISRVEAEDVGVYFCSQTTHVPWTFGGGTKLEIK
notes: Humanized
In test [1], B11 registered a Kd of 136 nM, a koff of 0.0039 s⁻¹ and a kon of 28700 M⁻¹ s⁻¹.

B12: 6A7-H3K2-IgG4 (antibody, V domains shown)
VH: QVQLVQSGAEVKKPGASVKVSCKASGYTFISYYIYWVRQAPGQGLEWIGGINPRNGGTNFNEKFKSRATLTVDTSISTAYMELSRLRSEDTAVYYCTRHGNGVYWGQGTTVTVSS
VL: DVVMTQSPLSLPVTLGQPASISCRSSQSLLHSNGNTYLHWYQQRPGQSPNHLIYQVSNRFSGVPDRFSGSGSGTDFTLKISRVEAEDVGVYFCSQTTHVPWTFGGGTKVEIK
notes: Humanized
In test [1], B12 returned a dissociation constant (Kd) of 5.74 nM, a koff of 0.000371 s⁻¹ and a kon of 64600 M⁻¹ s⁻¹.

B13: 6A7-H3K3-IgG4 (antibody, V domains shown)
VH: QVQLVQSGAEVKKPGASVKVSCKASGYTFISYYIYWVRQAPGQGLEWIGGINPRNGGTNFNEKFKSRATLTVDTSISTAYMELSRLRSEDTAVYYCTRHGNGVYWGQGTTVTVSS
VL: DVVMTQSPLSLPVTLGDPASISCRSSQSLLHSNGNTYLHWYQQRPGQSPNHLIYQVSNRFSGVPDRFSGSGSGTDFTLKISRVEAEDVGVYFCSQTTHVPWTFGGGTKLEIK
notes: Humanized
In test [1], B13 returned a Kd of 2.9 nM, a koff of 0.000356 s⁻¹ and an on-rate (kon) of 123000 M⁻¹ s⁻¹. For the same molecule, in test [2], the affinity, expressed as Kd, was 0.871 nM; the dissociation rate constant (koff) came to 0.000201 s⁻¹; the kon was 231000 M⁻¹ s⁻¹.
